These results are taken from publication PMC5024086, “Fine-tuning of amino sugar homeostasis by EIIA^Ntr in Salmonella Typhimurium” (Scientific Reports, 2016).

For data set [1], the target named is GlmS in solution (SEC-MALS) (Salmonella Typhimurium) (UniProt Q8ZKX1). The data set can be described thus: SEC-MALS; Superdex 200 10/300 GL, 20 mM Tris-HCl pH 8.0, 300 mM NaCl, 2 mg protein injected, 0.5 ml/min; proteins alone or in combination. On the technique in general: SEC sorts molecules by how far they enter the pores of the column.
Data set [2] concerns the molecule itself. The data set is described as above.

Consider “EIIA^Ntr in solution (SEC-MALS) (natural protein)”, for which, in data set [1], the stoichiometry N (EIIA^Ntr per GlmS chain (1:2)) is 0.5.

B1: GlmS in solution (SEC-MALS) (enzyme, Salmonella Typhimurium, UniProt Q8ZKX1 1-609, looked up)
chain: MCGIVGAIAQRDVAEILLEGLRRLEYRGYDSAGLAVVDAEGHMTRLRRLGKVQMLAQAAEEHPLHGGTGIAHTRWATHGEPSEANAHPHVSEHIVVVHNGIIENHEPLREALKARGYTFVSETDTEVIAHLVNWELKQGGTLREAVLRAIPQLRGAYGTVIMDTRHPDTLLAARSGSPLVIGLGMGENFIASDQLALLPVTRRFIFLEEGDIAEITRRSVNIFDNTGAEVKRQDIESNLQYDAGDKGIYRHYMQKEIYEQPNAIKNTLTGRISHGQVDLSELGPNADELLSKVEHIQILACGTSYNSGMVSRYWFESLAGIPCDVEIASEFRYRKSAVRRNSLMITLSQSGETADTLAGLRLSKELGYLGSLAICNVPGSSLVRESDLALMTNAGTEIGVASTKAFTTQLTVLLMLVAKLSRLKGLDASIEHDIVHGLQALPSRIEQMLSQDKRIELLAEDFSDKHHALFLGRGDQYPIALEGALKLKEISYIHAEAYAAGELKHGPLALIDADMPVIVVAPNNELLEKLKSNIEEVRARGGQLYVFADQDAGFVSNDNMHIIEMPHVEEVIAPIFYTVPLQLLAYHVALIKGTDVDQPRNLAKSVTVE
notes: D-glucosamine-6-phosphate synthase (GlmS), Salmonella Typhimurium; 128 kDa dimer by SEC-MALS; it may be the same as m7; also called GlmS dimer
What is called stoichiometry N is the number of molecules, sites or subunits per partner or assembly. For B1, the “stoichiometry N” value in data set [2] amounted to 2.
